The target in test [1] is ORF3 protein fused to enhanced cyan fluorescent protein (ECFP-ORF3) (hepatitis E virus). The test is described as follows: FRET or BRET. (In general: In BRET a luciferase serves as donor, and the signal depends on an acceptor being close.)
Test [2] has as its target Pyst1 fused to enhanced yellow fluorescent protein (EYFP-Pyst1) (UniProt Q16828). The test is described as follows: FRET or BRET.
Chain of UniProt Q16828 (Q16828 whole entry, the tested form may be a part): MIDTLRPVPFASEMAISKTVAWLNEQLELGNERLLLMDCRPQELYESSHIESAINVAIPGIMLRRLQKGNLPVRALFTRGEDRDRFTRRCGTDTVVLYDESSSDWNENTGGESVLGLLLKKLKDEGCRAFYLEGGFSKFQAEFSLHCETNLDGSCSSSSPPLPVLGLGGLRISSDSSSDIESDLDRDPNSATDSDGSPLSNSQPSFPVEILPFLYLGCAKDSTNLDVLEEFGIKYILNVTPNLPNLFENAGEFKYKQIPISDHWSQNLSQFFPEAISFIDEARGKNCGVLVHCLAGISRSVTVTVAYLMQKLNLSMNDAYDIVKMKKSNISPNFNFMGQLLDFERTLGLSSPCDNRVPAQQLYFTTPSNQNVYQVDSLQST

Turning to “ORF3 protein fused to enhanced cyan fluorescent protein (ECFP-ORF3) (natural protein)”, the percent FRET efficiency (region of colocalization) in test [1] was determined as 26.4%; in test [2], 27.8%.

These data come from paper PMC2441640.
